Assay results: US20210395323A1

Biological target: TNFR2 on human cells (Kym-1 cells; human CD3+ T cells) (human) (UniProt P20333)
Test: cell-based or functional assay

Sequence of TNFR2 on human cells (Kym-1 cells; human CD3+ T cells) (human) (P20333 23-461): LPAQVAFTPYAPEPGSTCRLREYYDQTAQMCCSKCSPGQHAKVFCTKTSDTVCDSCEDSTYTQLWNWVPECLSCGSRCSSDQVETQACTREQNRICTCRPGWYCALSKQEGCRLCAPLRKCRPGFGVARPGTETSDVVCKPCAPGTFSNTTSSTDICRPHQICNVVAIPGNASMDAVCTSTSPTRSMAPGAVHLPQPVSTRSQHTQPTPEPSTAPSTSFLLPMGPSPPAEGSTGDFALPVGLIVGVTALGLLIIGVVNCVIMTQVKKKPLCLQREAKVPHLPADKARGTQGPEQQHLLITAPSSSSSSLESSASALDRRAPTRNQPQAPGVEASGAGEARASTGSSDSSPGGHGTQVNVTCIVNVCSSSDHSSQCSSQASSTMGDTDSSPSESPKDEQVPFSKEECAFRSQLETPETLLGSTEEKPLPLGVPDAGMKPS

Substance | EC50 of Kym-1 cell viability (crystal violet assay after 16 h) [µM] | EC50 values (nM) of cell death induction using Kym-1 cells [nM]
scTNFR2-Fc-scTNFR2 (Fc fusion) | 8.5 | –
VASP-scTNFR2 (ligand) | 7 | –
human single-chain TNF variant (D143N/A145R, scTNFR2) (from UniProt Q8HZD9 77-232) (ligand) | – | 0.347
